Measurements from paper PMC5703881.

Assays:
Test in all cases: SPR
Settings in all cases: Bead assay: PBS with 1% BSA, antibody 0.2 or 2 ug/ml, 1 h, 22 C; SPR conditions not in the material
[1] = test system: 71F12GL-SFH (human)
[2] = test system: 71F12GL-SF (human)
[3] = test system: 72H11 IgG (human)
[4] = test system: 71F12 GL (germline-reverted) (human)

**Q.** With GGGGGGGGT [9-mer G8T] as the sequence, how does the fold reduction in affinity (fold lower affinity than for GGGGGGTTT) [1] read?
**A.** 150

**Q.** GGGGGGTTT [9-mer G6T3] was tested. Which fold reduction in affinity (fold lower affinity than 71F12GL-SFH) [2] did it give?
**A.** 30

**Q.** How did the Kd [3] turn out when “TAATACGACTCACTATAGGG (double strand) [biotinylated 20-bp dsDNA (Fig. 4A)]” was run?
**A.** 0.4 µM

**Q.** With TTTTT [5-mer T5] as the sequence, how does the fold reduction in affinity (fold lower affinity than 71F12) [4] read?
**A.** 50
